Experimental data published in patent publication US20180127503A1 (EUREKA THERAPEUTICS, published 2018).

B1: ROR2-241 full length human IgG1 antibody (antibody, V domains shown)
VH: EVQLVQSGAEVKKPGASVKVSCKASGYTFTNYYIHWVRQAPGQGLEWMGIINPTSGRTRYAQRFQGRVTMTRDTSTNTVYMDLSSLRSEDTAMYYCARSGYYWGVNGDQWGQGTLVTVSS
VL: SYELTQPLSVSVALGQTARITCGGNNIGSKNVHWYQQKPGQAPVLVIYRDSNRPSGIPERFSGSNSGNTATLTISRAQAGDEADYYCQVWDSSIVVFGGGTKLTVLG
B2: ROR2-240 full length human IgG1 antibody (antibody, V domains shown)
VH: QITLKESGPELVKPTQTLTLTCTFSGFSLSTSGMSVSWIRQPPGKALEWLARIDWDDDKYYSTSLKTRLTISKDTSKNQVVLTMTNTDPVDTATYYCARGFYLAYGSYDSWGQGTLVTVSS
VL: QSALTQPASVSGSPGQSITISCTGTSGDVGGYNYVSWYQHHPGKAPKLIIYDVNKRPSGFSDRFSGSKSGNTASLTISGLQAEDEADYYCSSYTSTSTVFGGGTKLTVLG
notes: also called clone #240 IgG1
B3: ROR2-27 full length human IgG1 antibody (antibody, V domains shown)
VH: QVQLVESGAEVKKPGESLKISCKASGYSFSNYWIGWVRQMPGKGLEWMGIIYPDDSDTRYSPSFQGQVTISADKSISTAYLQWYSLKVADTAKYYCVRPRGAFDIWGQGTTVTVSS
VL: QSVLTQPPSVSGAPGQRVTISCTGSSSNIGAGHAVHWYQQLPGTAPKLLIYDNANRPSGVPDRFSGSQSGTSASLAITGLQTGDEADYYCGTWDDSPSAYVFGTGTKVTVLG
notes: also called clone #27; clone #027 IgG1
B4: ROR2-23 full length human IgG1 antibody (antibody, V domains shown)
VH: EVQLVQSGAEVKKPGESLKISCQGSGYRFSKYWIGWVRQMPGKGLEWMGIIYPGDSDTRYSPSFQGQVTISADKSISTAYLQWSSLKASDTAMYYCARSFSSFIYDYWGQGTLVTVSS
VL: ETTLTQSPGTLSVSPGERATLSCRASQSVSSNLAWYQQKRGQAPRLLIYGASTRATGIPVRFSGSGSGTEFTLTISRLEPEDFAVYYCQQYGRSPLTFGGGTKVDIKR
notes: The light chain of clone 023 is labelled kappa; also called clone #23; clone #023 IgG1

These binders were tested against T1, human ROR2 expressed on the cell surface (human, UniProt Q01974 34-943) (assay: flow cytometry, RG187 cells (osteosarcoma)).
T1 construct: Endogenous ROR2 of human tumour cell lines; also called cell surface ROR2; ROR2 on tumour cell lines
Set-up: unit not given here
Procedure: (§1) Human tumour cell lines were authenticated using short tandem repeat (STR) analysis. They were cultured in RPMI1640 (Cellgro) supplemented with 10% fetal bovine serum (FBS, Life Technologies) at 37° C. in a 5% CO₂ humidified incubator. They were harvested, washed in PBS and reacted with ROR2-IgG at 1 ug/10⁶ tumour cells on ice for an hour. #901-IgG was used as a negative control at the same dose. After washing, a secondary PE-conjugated goat anti-human IgG, Fcγ fragment specific (1:100, Jackson ImmunoResearch) was added for another 30 min incubation. Staining was analyzed on a FACSCalibur (BD Biosciences). ROR2 (full length) antibody binding towards multiple cancer cell lines were compared with Rituxan and Herceptin antibodies. The cancer cell lines were derived from breast cancer, colorectal cancer, mesothelioma, hepatocellular carcinoma, ovarian cancer, osteosarcoma, neuroblastoma, etc. ROR2 #90 antibody could recognize most of the tumour cells tested, and in some cases, the binding intensity was higher than Herceptin (see Tables 8 to 10).

T1 sequence (Q01974 34-943 limits assumed): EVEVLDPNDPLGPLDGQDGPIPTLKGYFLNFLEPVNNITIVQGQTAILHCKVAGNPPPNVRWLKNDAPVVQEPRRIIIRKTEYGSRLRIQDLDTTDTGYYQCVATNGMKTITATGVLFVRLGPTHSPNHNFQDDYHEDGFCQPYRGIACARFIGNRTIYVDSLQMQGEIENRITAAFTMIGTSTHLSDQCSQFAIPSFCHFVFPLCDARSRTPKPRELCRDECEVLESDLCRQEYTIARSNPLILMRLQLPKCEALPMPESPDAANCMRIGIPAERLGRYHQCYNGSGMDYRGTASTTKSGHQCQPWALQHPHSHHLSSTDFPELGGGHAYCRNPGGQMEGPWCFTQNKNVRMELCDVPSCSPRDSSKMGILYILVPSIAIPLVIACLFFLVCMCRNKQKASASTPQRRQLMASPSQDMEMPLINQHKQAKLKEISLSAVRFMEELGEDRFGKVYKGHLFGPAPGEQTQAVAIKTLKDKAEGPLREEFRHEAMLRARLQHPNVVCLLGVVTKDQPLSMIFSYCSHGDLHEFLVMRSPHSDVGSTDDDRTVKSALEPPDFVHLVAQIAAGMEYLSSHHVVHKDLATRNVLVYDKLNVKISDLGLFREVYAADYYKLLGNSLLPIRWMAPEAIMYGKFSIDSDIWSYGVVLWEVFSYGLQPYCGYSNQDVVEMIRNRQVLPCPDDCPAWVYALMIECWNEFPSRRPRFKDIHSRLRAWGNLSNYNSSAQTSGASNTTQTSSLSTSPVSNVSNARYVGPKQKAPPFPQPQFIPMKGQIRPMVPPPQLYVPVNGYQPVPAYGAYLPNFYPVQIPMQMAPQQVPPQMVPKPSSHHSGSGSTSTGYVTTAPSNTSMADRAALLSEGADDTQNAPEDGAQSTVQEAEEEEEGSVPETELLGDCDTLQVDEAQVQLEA

Binder	binding intensity
B1	29
B2	4
B3	19
B4	44

What follows are binders tested against T1, human ROR2 expressed on the cell surface (assay: flow cytometry, TC32 cells (EW/PNET)).
Set-up: unit not given here
Procedure: as §1

Binder	binding intensity
B1	17
B2	4
B3	20
B4	37

These binders were tested against T1, human ROR2 expressed on the cell surface (assay: flow cytometry, H69 cells (SCLC)).
Set-up: unit not given here
Procedure: as §1

Binder	binding intensity
B1	131
B2	9
B3	24
B4	9

The binders below were run against T1, human ROR2 expressed on the cell surface (assay: flow cytometry, CRL1427 cells (osteosarcoma)).
Set-up: unit not given here
Procedure: as §1

Binder	binding intensity
B1	54
B2	4
B3	11
B4	30

These binders were tested against T1, human ROR2 expressed on the cell surface (assay: flow cytometry, SKNJB cells (neuroblastoma)).
Set-up: unit not given here
Procedure: as §1

Binder	binding intensity
B1	238
B2	199
B3	141
B4	182

What follows are binders tested against T1, human ROR2 expressed on the cell surface (assay: flow cytometry, H524 cells (SCLC)).
Set-up: reference not given here
Procedure: as §1

Binder	binding intensity
B1	32
B2	7
B3	16
B4	28

The binders below were run against T1, human ROR2 expressed on the cell surface (assay: flow cytometry, BE(2)S cells (neuroblastoma)).
Set-up: unit not given here
Procedure: as §1

Binder	binding intensity
B1	58
B2	26
B3	21
B4	26

What follows are binders tested against T1, human ROR2 expressed on the cell surface (assay: flow cytometry, NB5 cells (neuroblastoma)).
Set-up: unit not given here
Procedure: as §1

Binder	binding intensity
B1	56
B2	17
B3	20
B4	32

The binders below were run against T1, human ROR2 expressed on the cell surface (assay: flow cytometry, U2OS cells (osteosarcoma)).
Set-up: unit not given here
Procedure: as §1

Binder	binding intensity
B1	60
B2	39
B3	29
B4	52

Each binder was assayed against T1, human ROR2 expressed on the cell surface (assay: flow cytometry, SKNMM cells (neuroblastoma)).
Set-up: unit not given here
Procedure: as §1

Binder	binding intensity
B1	126
B2	84
B3	69
B4	77

What follows are binders tested against T1, human ROR2 expressed on the cell surface (assay: flow cytometry, AU565 cells (breast CA)).
Set-up: unit not given here
Procedure: as §1

Binder	binding intensity
B1	83
B2	4
B3	8
B4	102

The binders below were run against T1, human ROR2 expressed on the cell surface (assay: flow cytometry, OUMS 27 cells (chondrosarcoma)).
Set-up: unit not given here
Procedure: as §1

Binder	binding intensity
B1	53
B2	6
B3	48
B4	71

These binders were tested against T1, human ROR2 expressed on the cell surface (assay: flow cytometry, IMR32 cells (neuroblastoma)).
Set-up: unit not given here
Procedure: as §1

Binder	binding intensity
B1	50
B2	29
B3	16
B4	24

The binders below were run against T1, human ROR2 expressed on the cell surface (assay: flow cytometry, TC71 cells (EW/PNET)).
Set-up: unit not given here
Procedure: as §1

Binder	binding intensity
B1	12
B2	10
B3	21
B4	46

Each binder was assayed against T1, human ROR2 expressed on the cell surface (assay: flow cytometry, MCF7 cells (breast CA)).
Set-up: unit not given here
Procedure: as §1

Binder	binding intensity
B1	21
B2	3
B3	27
B4	52

These binders were tested against T1, human ROR2 expressed on the cell surface (assay: flow cytometry, SKES-1 cells (EW/PNET)).
Set-up: unit not given here
Procedure: as §1

Binder	binding intensity
B1	12
B2	5
B3	12
B4	22

These binders were tested against T1, human ROR2 expressed on the cell surface (assay: flow cytometry, H345 cells (SCLC)).
Set-up: unit not given here
Procedure: as §1

Binder	binding intensity
B1	49
B2	36
B3	26
B4	34

These binders were tested against T2, human ROR2 extracellular domain (ROR2 ECD recombinant protein) (human, UniProt Q01974 34-403) (assay: kinetic binding analysis, full length IgG1 on human ROR2-ECD).
T2 construct: also called human ROR2-ECD; hROR2-ECD
T2 sequence (Q01974 34-403): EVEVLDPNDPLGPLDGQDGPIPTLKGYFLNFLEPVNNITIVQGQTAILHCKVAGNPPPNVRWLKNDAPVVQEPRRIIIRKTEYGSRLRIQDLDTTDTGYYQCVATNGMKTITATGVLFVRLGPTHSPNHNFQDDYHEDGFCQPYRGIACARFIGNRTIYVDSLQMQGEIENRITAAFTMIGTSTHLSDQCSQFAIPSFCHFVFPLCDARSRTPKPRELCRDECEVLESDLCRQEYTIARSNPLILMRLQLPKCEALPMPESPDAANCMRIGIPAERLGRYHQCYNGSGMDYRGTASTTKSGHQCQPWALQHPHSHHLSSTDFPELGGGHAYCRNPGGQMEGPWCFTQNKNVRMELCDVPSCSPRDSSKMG

Binder	Kd [nM]	koff [s⁻¹]	kon [M⁻¹ s⁻¹]
B1	0.31	0.000538	1.74e+06
B2	0.063	4.45e-05	706000
B3	0.715	0.000608	851000
B4	0.164	0.000432	2.63e+06

What follows are binders tested against T1, human ROR2 expressed on the cell surface (assay: flow cytometry, JN DSRCT cells (DSRCT)).
Set-up: unit not given here
Procedure: as §1

Binder	binding intensity
B1	27
B2	3
B3	5
B4	50

These binders were tested against T1, human ROR2 expressed on the cell surface (assay: flow cytometry, SKMEL-5 cells (melanoma)).
Set-up: unit not given here
Procedure: as §1

Binder	binding intensity
B1	5
B2	1
B3	2
B4	7

What follows are binders tested against T1, human ROR2 expressed on the cell surface (assay: flow cytometry, HTB132 cells (breast CA)).
Set-up: unit not given here
Procedure: as §1

Binder	binding intensity
B1	45
B2	4
B3	8
B4	5

What follows are binders tested against T1, human ROR2 expressed on the cell surface (assay: flow cytometry, MCF7-Luc cells (breast CA)).
Set-up: unit not given here
Procedure: as §1

Binder	binding intensity
B1	42
B2	39
B3	74
B4	111

Each binder was assayed against T1, human ROR2 expressed on the cell surface (assay: flow cytometry, M14 cells (melanoma)).
Set-up: reference not given here
Procedure: as §1

Binder	binding intensity
B1	12
B2	4
B3	5
B4	9

Each binder was assayed against T1, human ROR2 expressed on the cell surface (assay: flow cytometry, U251 LUC cells (glioma)).
Set-up: unit not given here
Procedure: as §1

Binder	binding intensity
B1	120
B2	5
B3	9
B4	14

What follows are binders tested against T1, human ROR2 expressed on the cell surface (assay: flow cytometry, SKNSH cells (neuroblastoma)).
Set-up: unit not given here
Procedure: as §1

Binder	binding intensity
B1	141
B2	113
B3	8
B4	170

These binders were tested against T1, human ROR2 expressed on the cell surface (assay: flow cytometry, BE(1)N cells (neuroblastoma)).
Set-up: unit not given here
Procedure: as §1

Binder	binding intensity
B1	352
B2	279
B3	244
B4	273

The binders below were run against T1, human ROR2 expressed on the cell surface (assay: flow cytometry, NMB7 cells (neuroblastoma)).
Set-up: unit not given here
Procedure: as §1

Binder	binding intensity
B1	58
B2	33
B3	23
B4	35

The binders below were run against T1, human ROR2 expressed on the cell surface (assay: flow cytometry, HEP G2 cells (HCC)).
Set-up: unit not given here
Procedure: as §1

Binder	binding intensity
B1	36
B2	4
B3	11
B4	30
